US20260116928A1, “COMPOSITIONS AND PARTICLES FOR PAYLOAD DELIVERY” (Thornhill Therapeutics, Inc., priority 2019, published 2026)

Tested on: pancreatin
Experiment: Pancreatin assay (stability of SEQ ID NO: 3 and exenatide formulations)
Conditions: after 120 minutes of incubation with pancreatin; FIG. 11

B1: SEQ ID NO: 3: Cholix carrier protein having the sequence of SEQ ID NO: 3 (protein)
chain: MVEEALNIFDECRSPCSLTPEPGKPIQSKLSIPSDVVLDEGVLYYSMTINDEQNDIKDEDKGESIITIGEFATVRATRHYVNQDAPFGVIHLDITTENGTKTYSYNRKEGEFAINWLVPIGEDSPASIKISVDELDQQRNIIEVPKLYSIDLDNQTLEQWKTQGNVSFSVTRPEHNIAISWPSVSYKAAQKEGSRHKRWAHWHTGLALCWLVPMDAIYNYITQQNCTLGDNWFGGSYETVAGTPKVITVKQGIEQKPVEQRIHFSKGSGGSGGGGSGGGGSPRRRRSSSRPVRRRRRPRVSRRRRRRGGRRRRHHHHHH
degradation of SEQ ID NO: 3 by pancreatin: completely degraded
